# From IntAct's records for PubMed 17462627
# B1: Emerin (Homo sapiens), P50402 (parent)
# chain: MDNYADLSDTELTTLLRRYNIPHGPVVGSTRRLYEKKIFEYETQRRRLSPPSSSAASSYSFSDLNSTRGDADMYDLPKKEDALLYQSKGYNDDYYEESYFTTRTYGEPESAGPSRAVRQSVTSFPDADAFHHQVHDDDLLSSSEEECKDRERPMYGRDSAYQSITHYRPVSASRSSLDLSYYPTSSSTSFMSSSSSSSSWLTRRAIRPENRAPGAGLGQDRQVPLWGQLLLFLVFVIVLFFIYHFMQAEEGNPF
# Assays:
# [1] = variants of: B1; conditions: with SYNE1, Q8NF91-3
# [2] = variants of: B1; conditions: with SYNE2, Q8WXH0-3
# Chain of SYNE2, Q8WXH0-3 (Q8WXH0 6031-6885): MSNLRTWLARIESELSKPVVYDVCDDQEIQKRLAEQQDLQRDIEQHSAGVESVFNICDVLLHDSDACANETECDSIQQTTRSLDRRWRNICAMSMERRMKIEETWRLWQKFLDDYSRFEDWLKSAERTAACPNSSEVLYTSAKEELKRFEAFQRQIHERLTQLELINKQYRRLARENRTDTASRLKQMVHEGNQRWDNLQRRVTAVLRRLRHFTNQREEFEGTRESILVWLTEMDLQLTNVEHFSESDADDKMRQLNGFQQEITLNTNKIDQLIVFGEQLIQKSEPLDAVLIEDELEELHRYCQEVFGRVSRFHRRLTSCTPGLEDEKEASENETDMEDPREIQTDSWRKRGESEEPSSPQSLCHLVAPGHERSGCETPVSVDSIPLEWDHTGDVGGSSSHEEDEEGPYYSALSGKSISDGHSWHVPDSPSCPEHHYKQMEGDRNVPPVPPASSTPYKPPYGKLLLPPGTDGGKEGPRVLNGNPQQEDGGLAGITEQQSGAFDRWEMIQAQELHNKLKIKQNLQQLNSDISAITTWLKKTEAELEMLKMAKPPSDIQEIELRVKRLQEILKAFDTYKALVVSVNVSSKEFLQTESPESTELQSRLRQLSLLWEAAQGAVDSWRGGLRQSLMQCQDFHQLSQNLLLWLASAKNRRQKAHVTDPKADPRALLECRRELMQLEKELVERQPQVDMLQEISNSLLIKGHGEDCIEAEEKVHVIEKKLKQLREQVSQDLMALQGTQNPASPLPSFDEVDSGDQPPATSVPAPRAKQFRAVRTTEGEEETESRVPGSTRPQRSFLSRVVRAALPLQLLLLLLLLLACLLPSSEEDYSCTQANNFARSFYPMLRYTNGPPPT
# Chain of SYNE1, Q8NF91-3 (Q8NF91 other isoform, or with tags, fused parts or gaps): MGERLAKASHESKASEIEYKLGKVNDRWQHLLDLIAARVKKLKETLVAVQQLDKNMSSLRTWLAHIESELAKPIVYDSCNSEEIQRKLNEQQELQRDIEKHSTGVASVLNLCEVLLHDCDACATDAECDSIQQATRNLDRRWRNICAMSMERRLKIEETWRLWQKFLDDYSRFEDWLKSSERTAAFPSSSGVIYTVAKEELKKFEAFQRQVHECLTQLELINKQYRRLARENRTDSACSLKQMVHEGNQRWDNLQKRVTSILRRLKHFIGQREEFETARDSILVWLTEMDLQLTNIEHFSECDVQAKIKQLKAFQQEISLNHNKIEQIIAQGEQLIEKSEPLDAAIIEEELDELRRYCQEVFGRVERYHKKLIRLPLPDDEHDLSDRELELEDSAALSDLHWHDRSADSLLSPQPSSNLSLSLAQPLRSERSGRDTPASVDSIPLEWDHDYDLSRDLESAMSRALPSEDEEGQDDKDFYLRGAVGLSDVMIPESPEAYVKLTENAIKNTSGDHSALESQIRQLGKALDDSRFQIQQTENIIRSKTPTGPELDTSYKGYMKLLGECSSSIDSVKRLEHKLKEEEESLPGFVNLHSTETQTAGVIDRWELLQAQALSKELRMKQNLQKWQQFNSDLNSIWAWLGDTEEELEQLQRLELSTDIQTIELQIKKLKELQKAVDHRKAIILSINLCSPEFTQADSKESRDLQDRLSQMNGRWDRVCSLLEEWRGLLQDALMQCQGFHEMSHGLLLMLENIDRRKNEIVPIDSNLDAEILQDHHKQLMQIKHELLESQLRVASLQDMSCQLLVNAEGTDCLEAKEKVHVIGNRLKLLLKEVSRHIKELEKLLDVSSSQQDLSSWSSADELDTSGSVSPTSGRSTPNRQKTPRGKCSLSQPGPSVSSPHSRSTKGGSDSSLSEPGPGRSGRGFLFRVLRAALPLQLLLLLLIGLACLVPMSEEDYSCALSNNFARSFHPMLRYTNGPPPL
effect of a mutation on the interaction [1],effect of a mutation on the interaction [2],Variant
increasing interaction strength,–,MDNYADLSDTELTTLLRRYNIPHGPVVGSTRRLYEKKIFEYETQRRRLSPPSSSAASSYSFSDLNSTRGDADMYDLPKKEDALLYQSKGYNDDYYEESYFTTRTYGEPESAGPSRAVRQSVTSFPDADAFHHHVHDDDLLSSSEEECKDRERPMYGRDSAYQSITHYRPVSASRSSLDLSYYPTSSSTSFMSSSSSSSSWLTRRAIRPENRAPGAGLGQDRQVPLWGQLLLFLVFVIVLFFIYHFMQAEEGNPF [Q133H]
decreasing interaction strength,increasing interaction strength,MDNYADLSDTELTTLLRRYNIPHGPVVGSTRRLYEKKIFEYETQRRRLSPPSSSAASSYSFSDLNSTRGDADMYDLPKKEDALLYQSKGYNDDYYEESYFTTRTYGEPESAGPSRAVRQSVTSFPDADAFHHQVHDDDLLSSSEEECKDRERPMYGRDSAYQSITHYRPVSASRSSLDLSYYTTSSSTSFMSSSSSSSSWLTRRAIRPENRAPGAGLGQDRQVPLWGQLLLFLVFVIVLFFIYHFMQAEEGNPF [P183T]
increasing interaction strength,increasing interaction strength,MDNYADLSDTELTTLLRRYNIPHGPVVGSTRRLYEKKIFEYETQRRRLSPPSSSAASSYSFSDLNSTRGDADMYDLPKKEDALLYQSKGYNDDYYEESYFTTRTYGEPESAGPSRAVRQSVTSFPDADAFHHQVHDDDLLSSSEEECKDRERPMYGRDSAYQSITHYRPVSASRSSLDLSYYHTSSSTSFMSSSSSSSSWLTRRAIRPENRAPGAGLGQDRQVPLWGQLLLFLVFVIVLFFIYHFMQAEEGNPF [P183H]
